In the supplement of paper PMC12764529:
± gives the half width of the 95% confidence interval.

Tests used:
[1] = folding stability dG unfold from trypsin proteolysis; higher = more stable
In short: (§1)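 Mini-proteins designed to be under 80 residues and free of cysteine were carried in a PA-tagged cDNA display construct and digested with trypsin and with chymotrypsin. Each protease was applied at 11 threefold-diluted concentrations, alongside a no-protease condition, before sequencing. K50 came from Bayesian fitting of the sequencing counts, and unfolding free energy was obtained by comparing it with a sequence-predicted unfolded-state K50 and a shared folded-state K50, for each protease separately or for both together. Designs were retained only if their AlphaFold2 dimer inter-PAE exceeded 15.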

[2] = folding stability dG unfold from chymotrypsin proteolysis; higher = more stable
In short: as §1

[3] = folding stability dG unfold (combined trypsin and chymotrypsin); higher = more stable
In short: as §1

Sequence	folding stability dG unfold [1] [kcal/mol]	folding stability dG unfold [2] [kcal/mol]	folding stability dG unfold [3] [kcal/mol]
SAGGSAGGSALKNAPGPDPALLKPRPVLVIPIPKDIPLEEAEALAEIFRKLYPDVPVVLDVEGGSAGGSAGG [r6_299_TrMRF]	0.826 ± 0.046	1.07 ± 0.072	0.971 ± 0.05
SAGGMADEELANMSLEEVIAAVKEAGAKTVTVTFPDGSTLTIDLGDDGVVTVTLTTPPGEKETFEIPSAGGS [r8_51_TrMRF]	2.34 ± 0.17	2.73 ± 0.088	2.59 ± 0.11
SAGGEKITAEELVEEIQKIFNENGMKPVAIEPMPDGGVFIHFKNPYMIMIDAEEGKIEIMPPEDMEDFSAGG [r13_717_TrROS]	1.04 ± 0.068	1.49 ± 0.13	1.09 ± 0.27
MFKPGTKVTFGDKTVEVPEGDELYIFEGKVFGTSEVEAVLENMSDDAVGYKLVVEDETGKIVKVEEFVFKPS [r1_304_TrMRF]	-0.451 ± 0.25	-0.172 ± 0.51	-0.406 ± 0.43
SAGGSAGGSVEKLKKALEKLGIKVENVKIEVKTNKNGKKTVTIYVNGKKLSKEEIKKALKEIKSAGGSAGGS [r12_175_TrROS_Hall]	2.99 ± 0.23	4.46 ± 0.33	4.24 ± 0.44
SAGGSAGGSAGGSKPKMYILKIKIKVEVKYDKETNEIVEEEIEIEIEIIEVKPGEKLELSAGGSAGGSAGGS [r4_175_TrROS_Hall]	1.42 ± 0.13	3.28 ± 0.092	2.52 ± 0.35
SAGGSAVEFTEPGAELLSEEKLPDGTVVKRVLLPDGSVLLLLPDNSIKTRSLSNPNTSLSEWDPELSAGGSA [r15_692_JUSTAS]	0.613 ± 0.17	0.332 ± 0.32	0.491 ± 0.26
SAGGDVTIEWFPMSEEEMKKMMEEMPPNTIMIPFPGNGYFIPVRVPDDPEEADKIAEEIRKWLEQLPSAGGS [r16_311_TrROS]	1.81 ± 0.057	1.44 ± 0.024	1.62 ± 0.063
SAGGSAGGMTIEVTFPDGTKLTITLENDGPDTLLATAEVEAPRAGGPSIPKEVAAKLAEELLASSAGGSAGG [r6_234_TrMRF]	1.19 ± 0.061	1.62 ± 0.081	1.36 ± 0.12
SAGGSAPLPPGAVVEIVEVRFDPETRRIEMVVKVYDANGELVATLRVELEFDPETNELTLRVELLPSAGGSA [r15_1028_TrROS_Hall]	3.41 ± 0.24	4.5 ± 0.18	4.23 ± 0.14
SAGGSAGGSAKWIYIMLPFPEGQKVEIEYPNGRKHSYEQTPDGMLMIRVRRPNAPIKIKIKSAGGSAGGSAG [r3_334_TrROS]	1.9 ± 0.13	2.72 ± 0.23	2.4 ± 0.25
SKKIKIILRYPDGWYVKAEMEVPNGKERDIWFPNPEEAIEWAKTIARQFNPGVEIEDIETVPPDDLPPNFSA [r9_137_TrROS]	1.21 ± 0.084	1.86 ± 0.077	1.61 ± 0.23
SAGGSAIVIPVKSWEEFVEALKNAPASVEIIADLPDGNVIKAKIDPSKGPKIIITEVFPVPPELAGSAGGSA [r15_577_TrMRF]	0.515 ± 0.036	1.06 ± 0.053	0.859 ± 0.11
SAGGMVTITVSIEEGKGYAVITITIDDETLTIKIPIPNMTEEDIKAKAEEIAKELAEKYGIEEIKLESAGGS [r16_249_JUSTAS]	3.08 ± 0.16	3.37 ± 0.13	3.34 ± 0.32
SAGGEVKIEVVEKDGELYIVVTVRAPSVEELKKALEELGLEVEVVKIEEVKGEDGETYVVVVVKIKPSAGGS [r16_699_TrROS_Hall]	2.41 ± 0.086	3.68 ± 0.065	3.24 ± 0.07
SAGGSAGGSMKVEIKFPDGSVKTIPLSPEEPDVPPEALVKELGADNVTITYYTPDGVPINLGISAGGSAGGS [r12_411_JUSTAS]	0.297 ± 0.058	0.916 ± 0.03	0.706 ± 0.053
SPVEIVSEETDPNGGTKYKTYSNPQADVRIEVAYPSSGITITVHFPDSTSTKSFSSEADAEKEVVRLAASSA [r9_527_JUSTAS]	0.339 ± 0.086	0.944 ± 0.15	0.711 ± 0.11
SAGGSMTLEELKNMTVEELRELLGEDAEVTVDEETGTITIRVPGKEVTIEVDEETGEVKIVEVKPVSAGGSA [r2_470_TrROS_Hall]	3.31 ± 0.24	2.27 ± 0.13	2.89 ± 0.26
SAGGMVIEKDGDYEYVLLLVDSPEGFPVEVAKELLKKEFGLKEIKVLSAKPLPNGIRLVLVKNKFEKSAGGS [r16_234_TrMRF]	0.875 ± 0.023	1.57 ± 0.062	1.3 ± 0.052
SAGGSSPLLLTSSPTPLTLPDGGTVTLTTTRVPGDNADVVTITTTPPGTGTTTVTTLPASTAAATLSAGGSA [r2_366_JUSTAS]	1.47 ± 0.034	0.603 ± 0.12	1.15 ± 0.068
